Reference: patent US7364741

Legend:
[1] = target: HLA-A2.1 molecules expressed by 174CEM.T2 cells (human); assay: T2 HLA-A2.1 stabilisation, flow cytometry (BB7.2), peptide 200 ug/ml
[2] = target: HLA-A1 molecules isolated from the EBV transformed cell line Steinlin (human)
[3] = target: HLA-A3.2 molecules isolated from the EBV transformed cell line GM3107 (human)
[4] = target: HLA-A11.2 molecules isolated from the cell line BVR (human)
[5] = target: HLA-A24 molecules isolated from the EBV transformed cell line KT3 (human)
[6] = target: HLA-A2.1 molecules isolated from the EBV transformed cell line JY (human)

Substance | binding ratio to standard [3] | binding ratio to standard [4] | further results
[…] (residues 25-33 of HPV16 protein E6) (peptide; other documents disagree on this pair) |  |  | FI (Fluorescence Index) [1]: 0.6; MF (mean fluorescence) [1]: 108
[…] (residues 82-90 of HPV16 protein E7) (peptide; other documents disagree on this pair) |  |  | FI (Fluorescence Index) [1]: 0.8; MF (mean fluorescence) [1]: 119
… (residues 19-27 of HPV16 protein E7), synthesized with alanine instead of cysteine (peptide; other documents disagree on this pair) |  |  | binding ratio to standard [2]: 0.023
… (residues 33-41 of HPV16 protein E6), synthesized with alanine instead of cysteine (peptide; other documents disagree on this pair) | 1.5 | 6.7 | 
… (residues 37-45 of HPV16 protein E6) with alanine instead of cysteine (peptide; other documents disagree on this pair) | 0.032 | 0.045 | 
… (residues 38-46 of HPV16 protein E6), synthesized with alanine instead of cysteine (peptide; other documents disagree on this pair) | 0.0012 | 0.0022 | binding ratio to standard [5]: 0.0011
… (residues 51-59 of HPV16 protein E7), synthesized with alanine instead of cysteine (peptide; other documents disagree on this pair) | 0.026 | 0.001 | 
… (residues 52-60 of HPV16 protein E6), synthesized with alanine instead of cysteine (peptide; other documents disagree on this pair) |  |  | binding ratio to standard [6]: 0.37
… (residues 52-60 of HPV16 protein E7), synthesized with alanine instead of cysteine (peptide; other documents disagree on this pair) | 0.0067 | 0.006 | 
… (residues 58-66 of HPV16 protein E7), synthesized with alanine instead of cysteine (peptide; other documents disagree on this pair) | 0.0016 | 0.011 | 
… (residues 60-68 of HPV16 protein E7), synthesized with alanine instead of cysteine (peptide; other documents disagree on this pair) | 0.0012 |  | 
… (residues 66-74 of HPV16 protein E6), synthesized with alanine instead of cysteine (peptide; other documents disagree on this pair) |  |  | binding ratio to standard [5]: 0.0055
… (residues 67-75 of HPV16 protein E6), synthesized with alanine instead of cysteine (peptide; other documents disagree on this pair) | 0.0012 | 0.0074 | 
… (residues 68-76 of HPV16 protein E6), synthesized with alanine instead of cysteine (peptide; other documents disagree on this pair) | 0.0056 | 0.0037 | 
… (residues 69-77 of HPV16 protein E6), synthesized with alanine instead of cysteine (peptide; other documents disagree on this pair) | 0.0025 | 0.003 | 
… (residues 72-80 of HPV16 protein E6), synthesized with alanine instead of cysteine (peptide; other documents disagree on this pair) |  |  | binding ratio to standard [5]: 0.11

Substance | binding ratio to standard [3] | binding ratio to standard [4] | further results
… (residues 79-87 of HPV16 protein E6) with alanine instead of cysteine (peptide; other documents disagree on this pair) | 0.0044 | 0.0076 | 
… (residues 80-88 of HPV16 protein E6), synthesized with alanine instead of cysteine (peptide; other documents disagree on this pair) | 0.0064 | 0.43 | 
… (residues 82-90 of HPV16 protein E6), synthesized with alanine instead of cysteine (peptide; other documents disagree on this pair) |  |  | binding ratio to standard [5]: 0.046
… (residues 84-92 of HPV16 protein E6), synthesized with alanine instead of cysteine (peptide; other documents disagree on this pair) | 0.0036 |  | 
… (residues 85-93 of HPV16 protein E6), synthesized with alanine instead of cysteine (peptide; other documents disagree on this pair) |  |  | binding ratio to standard [5]: 0.0037
… (residues 86-94 of HPV16 protein E7) (peptide) |  |  | FI (Fluorescence Index) [1]: 2.5; MF (mean fluorescence) [1]: 228
… (residues 87-95 of HPV16 protein E6), synthesized with alanine instead of cysteine (peptide; other documents disagree on this pair) |  |  | binding ratio to standard [5]: 0.12
… (residues 90-98 of HPV16 protein E7), synthesized with alanine instead of cysteine (peptide; other documents disagree on this pair) |  | 0.0012 | 
… (residues 97-105 of HPV16 protein E6), synthesized with alanine instead of cysteine (peptide; other documents disagree on this pair) | 0.0045 |  | 
… (residues 107-115 of HPV16 protein E6), synthesized with alanine instead of cysteine (peptide; other documents disagree on this pair) | 3.7 | 0.012 | 
… (residues 139-147 of HPV16 protein E6), synthesized with alanine instead of cysteine (peptide; other documents disagree on this pair) |  |  | binding ratio to standard [2]: 0.02
… (residues 140-148 of HPV16 protein E6), synthesized with alanine instead of cysteine (peptide; other documents disagree on this pair) |  | 0.0012 | 
… (residues 143-151 of HPV16 protein E6), synthesized with alanine instead of cysteine (peptide; other documents disagree on this pair) | 0.18 | 0.0084 | 
… (residues 144-152 of HPV16 protein E6), synthesized with alanine instead of cysteine (peptide; other documents disagree on this pair) |  |  | binding ratio to standard [2]: 0.019
… (residues 145-153 of HPV16 protein E6), synthesized with alanine instead of cysteine (peptide; other documents disagree on this pair) | 0.02 |  | 
… (residues 146-154 of HPV16 protein E6), synthesized with alanine instead of cysteine (peptide; other documents disagree on this pair) | 0.002 |  | 
